Results: paper PMC9499541, “Ait1 regulates TORC1 signaling and localization in budding yeast” (eLife, 2022)

B1: GFP-Ait1 (natural protein, S. cerevisiae, UniProt Q12301 1-547, looked up)
chain: MVRLNHAASYFMPIFCSTRPHIVILSALFSISLFSLFYASSELLLHQYDDPLMFKPNSQDYFRTFLLGLFSPFLYYFLKTFLFNINQRFLILNLIVDFPINDVFMLLILIGLAYPQVQDHEGGTIKHKECSWHIIPRQAYIFGISWALGEFTICIIGNLFNYQEIADPNINSGFTHQESANTYCNNNDMSHNDDCGCSTEYRPNVVDRSDITLSKCIEVRNDSSSISNNVYSSEYHPIKPLRSSSSTYGSIRQQPHENKKQLHVPDNSQDDTIIMMNPIDNSLKLTTLDTGDLSFPIDEEQPILKKSFGYTWAVPNENTQNTTKSFTPIKRFIAFSTAYQLVTGLLLMILVVGSNIMLTIGESLILSMYFVYVRGHEGLFTPVVNYFGSRTISNFILCVIIPFISLNFLINTSIYLRRELDDWFNNSQGEFEDDDENTISKRVATNQEYQHPLSANYISMDSPDVINSSPGHFGMNSGQLLGNTTLYYGSLNGDDDDMTNDSALLRFCKKLVKNWRALARNDSFVLGVMVSWSLLVFVTGILSTVYI
notes: Ait1 (Ydl180w), GPCR-like protein of the vacuolar membrane, S. cerevisiae; The strain list is in Supplementary file 3; source: S. cerevisiae (W303) strain carrying GFP-Ait1, in lysate; not shown: GFP, N-terminal, kept
B2: Gtr1-myc (natural protein, S. cerevisiae, UniProt Q00582 1-310, looked up)
chain: MSSNNRKKLLLMGRSGSGKSSMRSIIFSNYSAFDTRRLGATIDVEHSHLRFLGNMTLNLWDCGGQDVFMENYFTKQKDHIFQMVQVLIHVFDVESTEVLKDIEIFAKALKQLRKYSPDAKIFVLLHKMDLVQLDKREELFQIMMKNLSETSSEFGFPNLIGFPTSIWDESLYKAWSQIVCSLIPNMSNHQSNLKKFKEIMNALEIILFERTTFLVICSSNGENSNENHDSSDNNNVLLDPKRFEKISNIMKNFKQSCTKLKSGFKTLILNNNIYVSELSSNMVCFIVLKDMNIPQELVLENIKKAKEFFQ
notes: Gtr1, small GTPase (homolog of RagA/B), S. cerevisiae; also called Gtr1/2; source: S. cerevisiae (W303) strain carrying Gtr1-myc, in lysate

How the values were obtained:
Kog1-FLAG = biological target: T1, Kog1-FLAG (S. cerevisiae, UniProt P38873 1-1557); test: co-IP; Kog1-FLAG immunopurified on anti-FLAG beads after DSP crosslinking; blot with anti-GFP and anti-FLAG; with and without amino acids, long-term amino acid and glucose starvation, also with 4x protease inhibitors; settings: partners not purified
T1 construct: Kog1 (Raptor homolog), subunit of TORC1, S. cerevisiae; Bait on anti-FLAG beads; The strain list is in Supplementary file 3; also called Kog1/Raptor; TORC1 subunit Kog1; source: S. cerevisiae (W303) strain carrying Kog1-FLAG, in lysate
T1 sequence (P38873 whole entry): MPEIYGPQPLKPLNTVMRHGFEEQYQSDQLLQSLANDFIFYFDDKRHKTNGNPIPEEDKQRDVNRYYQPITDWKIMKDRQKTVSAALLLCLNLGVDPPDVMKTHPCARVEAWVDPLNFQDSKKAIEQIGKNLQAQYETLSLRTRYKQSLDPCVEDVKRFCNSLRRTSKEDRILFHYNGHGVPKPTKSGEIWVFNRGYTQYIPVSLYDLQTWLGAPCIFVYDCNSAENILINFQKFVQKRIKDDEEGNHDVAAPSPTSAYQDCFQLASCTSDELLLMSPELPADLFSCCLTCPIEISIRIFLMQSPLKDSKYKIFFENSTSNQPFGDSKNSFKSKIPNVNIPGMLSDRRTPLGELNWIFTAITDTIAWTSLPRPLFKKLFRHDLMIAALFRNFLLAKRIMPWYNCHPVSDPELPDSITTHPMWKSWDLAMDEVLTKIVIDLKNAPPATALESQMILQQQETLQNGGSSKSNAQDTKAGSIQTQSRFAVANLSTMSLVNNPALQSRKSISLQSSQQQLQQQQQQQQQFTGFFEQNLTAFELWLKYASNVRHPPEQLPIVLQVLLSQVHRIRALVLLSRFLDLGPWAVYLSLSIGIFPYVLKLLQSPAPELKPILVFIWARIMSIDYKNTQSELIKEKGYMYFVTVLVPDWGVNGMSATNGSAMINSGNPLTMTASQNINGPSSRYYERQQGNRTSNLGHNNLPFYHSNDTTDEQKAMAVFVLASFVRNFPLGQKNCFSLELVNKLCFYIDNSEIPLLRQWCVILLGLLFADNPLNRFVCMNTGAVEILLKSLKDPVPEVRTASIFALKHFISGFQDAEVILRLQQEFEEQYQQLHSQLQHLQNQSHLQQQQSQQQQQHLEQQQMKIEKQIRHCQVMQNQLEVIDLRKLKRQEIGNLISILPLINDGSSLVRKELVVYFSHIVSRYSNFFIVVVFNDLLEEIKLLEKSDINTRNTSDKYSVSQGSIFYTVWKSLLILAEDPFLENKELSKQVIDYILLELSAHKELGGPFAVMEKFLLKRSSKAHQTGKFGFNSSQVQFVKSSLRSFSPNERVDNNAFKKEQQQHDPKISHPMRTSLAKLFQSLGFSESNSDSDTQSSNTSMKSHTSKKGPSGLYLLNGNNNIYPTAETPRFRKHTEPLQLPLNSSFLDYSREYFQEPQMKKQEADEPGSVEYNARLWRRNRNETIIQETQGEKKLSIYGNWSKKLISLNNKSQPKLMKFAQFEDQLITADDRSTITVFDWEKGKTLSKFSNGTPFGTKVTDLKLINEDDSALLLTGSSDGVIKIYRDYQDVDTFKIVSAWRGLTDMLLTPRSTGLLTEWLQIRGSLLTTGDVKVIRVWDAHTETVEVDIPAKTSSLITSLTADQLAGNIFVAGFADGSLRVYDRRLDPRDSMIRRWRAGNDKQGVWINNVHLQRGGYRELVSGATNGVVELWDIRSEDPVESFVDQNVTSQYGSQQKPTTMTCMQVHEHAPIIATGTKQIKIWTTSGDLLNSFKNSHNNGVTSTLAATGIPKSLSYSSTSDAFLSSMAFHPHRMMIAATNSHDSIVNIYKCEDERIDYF

GFP-Ait1 = biological target: B1; test: co-IP; GFP-Ait1 or GFP-Ait1C3v2 immunopurified on anti-GFP beads in nonionic detergent (digitonin) without a crosslinker; blot with anti-Myc and anti-GFP; log phase, 30 min amino acid starvation, long-term amino acid and glucose starvation; settings: partners not purified

Row | Binder | amount copurified after long-term amino acid and glucose starvation, relative to log-phase growth (Kog1-FLAG) | amount copurified after long-term amino acid and glucose starvation, relative to log-phase growth (GFP-Ait1)
1 | B1 | 50 % of the level found in log-phase growth | 
2 | B2 |  | 60 % of the level found in log-phase growth
